Experimental data: US20140322162A1
pKd: −log10 of the molar value.

What was measured:
[1] = biological target: H-ferritin binding sites (receptor) on bovine retinal endothelial cell (BREC) homogenate (bovine); assay: saturation binding of 125I-rH-ferritin to BREC homogenate, global non-linear one-site fit
[2] = biological target: H-ferritin binding sites (receptor) on rat brain microvessels (rat); assay: saturation binding of 125I-rH-ferritin to rat brain microvessels, global non-linear one-site fit

Bmax (fmol/mg protein) [1]: 466 | pKd [1]: 8.57 | Bmax (fmol/mg protein) [2]: 573 | pKd [2]: 8.10
Substance: recombinant human H-ferritin (from UniProt P02794 1-183) (ligand)
